Experimental data reported in patent US20180079808A1 (AbbVie / Abbott, published 2018).

Experiments:
cynomolgus monkey rIL-13 [1] = biological target: T1, cynomolgus monkey rIL-13 (cynomolgus monkey, UniProt Q0PW92 21-132); assay: cell-based or functional assay
rat rIL-13 = biological target: T2, rat rIL-13 (rat, UniProt P42203 19-131, limits assumed); assay: cell-based or functional assay
T2 sequence (looked up): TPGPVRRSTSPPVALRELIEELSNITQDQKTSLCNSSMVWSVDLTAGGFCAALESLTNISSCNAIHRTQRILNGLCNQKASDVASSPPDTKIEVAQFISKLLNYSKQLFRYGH

human IL-13 wild type [2] = biological target: T3, human IL-13 wild type (human, UniProt P35225 35-146, limits assumed); assay: crystal structure of the complex
T3 construct: also called IL-13 wt; rh IL-13

[3] = biological target: T4, human IL-13 variant (R130Q) (human, UniProt P35225 35-146, limits assumed); assay: column 'Affinity, KD (nM)', hIL-13v; method not given
T4 construct: also called variant IL-13

human IL-13 wild type [4] = biological target: T3, human IL-13 wild type; assay: column 'Affinity, KD (nM)', hIL-13wt; method not given
[5] = biological target: T4, human IL-13 variant (R130Q); assay: cell-based or functional assay
cynomolgus monkey rIL-13 [6] = biological target: T1, cynomolgus monkey rIL-13; assay: cell-based or functional assay; remark: listed apart in the source
human IL-13 wild type [7] = biological target: T3, human IL-13 wild type; assay: cell-based or functional assay

T1 sequence (Q0PW92 entry or part of it): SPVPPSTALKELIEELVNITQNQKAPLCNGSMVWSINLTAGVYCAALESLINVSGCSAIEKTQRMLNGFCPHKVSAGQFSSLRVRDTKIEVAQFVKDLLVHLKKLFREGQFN
T4 sequence (P35225 35-146 limits assumed, stated change not applied): as the sequence (Q0PW92 entry or part of it) above, with S1G, K10R, V42M, N67S, R83H, V100L counted along it
T3 sequence (P35225 other isoform, or with tags, fused parts or gaps limits assumed): as the sequence (Q0PW92 entry or part of it) above, with S1G, K10R, V42M, N67S, R83H, V100L, Q110R counted along it

B1: 13C5.5, humanized recombinant immunoglobulin IgG1 (IgG1, κ) monoclonal antibody (antibody, V domains shown)
VH: EVTLRESGPGLVKPTQTLTLTCTLYGFSLSTSDMGVDWIRQPPGKGLEWLAHIWWDDVKRYNPALKSRLTISKDTSKNQVVLKLTSVDPVDTATYYCARTVSSGYIYYAMDYWGQGTLVTVSS
VL: DIQMTQSPSSLSASVGDRVTISCRASQDIRNYLNWYQQKPGKAPKLLIFYTSKLHSGVPSRFSGSGSGTDYTLTISSLQPEDIATYYCQQGNTLPLTFGGGTKVEIK
Q: For B1, which “fold lower in vitro potency compared to human rIL-13” value (cynomolgus monkey rIL-13 [1]) is on record?
A: 51 fold

Q: And the “half maximal inhibitory concentration (IC50), in vitro neutralization” value (cynomolgus monkey rIL-13 [1])?
A: 4.1 nM

Q: And the “IC50, in vitro neutralization” value (rat rIL-13)?
A: 12.4 nM

Q: And the “fold lower in vitro potency compared to human rIL-13” value (rat rIL-13)?
A: 155 fold

B2: Fab portion of 13C5.5 antibody (Fab, V domains shown)
VH: B1 VH
VL: B1 VL
notes: Fab used for the crystal structure with human IL-13; also called 13C5.5 Fab
Q: Does B2 bind (human IL-13 wild type [2])?
A: binds

B3: 5G1 (antibody, V domains shown)
VH: QVQLQQSGAELARPGTSVKLSCKASGYTFTTYGVSWVKQRTGQGLEWIGEIYPGNYNTYYNEKFRGKATLTADKSSSTAYMQLSSLTSEDSAVYFCSRWRTSYFSDYGYFDYWGQGTTLTVSS
VL: DVVMTQTPLSLPVSLGDQASISCRSSQSLVHSHGNTYLHWYLQKPGQSPKLLIYTVSNRFSGVPDRFSGSGSGTDFTLKISRVEAEDLGVYFCSQSTHVPYTFGGGTKLEIKR
Q: Which Kd [3] does the source give for B3 here?
A: 0.13 nM

Q: And the Kd (human IL-13 wild type [4])?
A: 0.008 nM

Q: And the “Potency, IC50 (neutralisation of hIL-13v; assay not given)” value [5]?
A: 0.048 nM

Q: What about the “Potency, IC50 (neutralisation of Cyno IL-13; assay not given)” value (cynomolgus monkey rIL-13 [6]) of the same binder?
A: 0.612 nM

Q: What about the “Potency, IC50 (neutralisation of hIL-13wt; assay not given)” value (human IL-13 wild type [7]) of the same binder?
A: 0.076 nM

B4: 9C11 (antibody, V domains shown)
VH: QVRLQQPGAELVRPGASVKLSCKASGYTFTSSWIHWVNQRPGQGLEWIGMIHPSDSETRLNQKFKDKATLTVDKSSSTAYMQLSSPTSEDSAVYYCASTATDFDYWGQGTTLTVSS
VL: DVVLTQTPLSLPVNIGDQASISCRSTQTLLNSDGFTYLDWYLQKPGQSPQLLIYLVSNRFSGVPDRFSGSGSGTDFTLKISRVEAEDLGVYYCFQNNYLPLTFGAGTKLELKR
Q: Which results are given for B4?
A: Kd [3]: 0.092 nM; Kd (human IL-13 wild type [4]): 0.112 nM; Potency, IC50 (neutralisation of hIL-13v; assay not given) [5]: 0.17 nM; Potency, IC50 (neutralisation of Cyno IL-13; assay not given) (cynomolgus monkey rIL-13 [6]): 0.64 nM; Potency, IC50 (neutralisation of hIL-13wt; assay not given) (human IL-13 wild type [7]): 0.184 nM
